T1: LASV Josiah (lineage IV) glycoprotein, full-length GP (Lassa virus, Josiah strain, UniProt P08669 2-491)
T1 sequence: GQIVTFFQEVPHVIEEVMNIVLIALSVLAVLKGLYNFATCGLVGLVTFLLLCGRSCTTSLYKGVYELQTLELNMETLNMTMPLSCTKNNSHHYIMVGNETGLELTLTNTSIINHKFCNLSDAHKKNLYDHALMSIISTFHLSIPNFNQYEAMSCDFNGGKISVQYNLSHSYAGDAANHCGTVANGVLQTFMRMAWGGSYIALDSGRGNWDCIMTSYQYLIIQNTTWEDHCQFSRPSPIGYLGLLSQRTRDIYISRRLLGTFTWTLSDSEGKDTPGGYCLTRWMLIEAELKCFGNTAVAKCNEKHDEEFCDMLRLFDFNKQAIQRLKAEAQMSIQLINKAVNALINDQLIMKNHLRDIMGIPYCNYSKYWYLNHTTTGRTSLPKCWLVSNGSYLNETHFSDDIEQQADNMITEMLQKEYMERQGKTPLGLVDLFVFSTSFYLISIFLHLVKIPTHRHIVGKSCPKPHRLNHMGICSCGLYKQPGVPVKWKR

T2: LCMV WE strain GP (LCMV, WE strain, UniProt P07399 2-498)
T2 construct: whole, on cells
T2 sequence: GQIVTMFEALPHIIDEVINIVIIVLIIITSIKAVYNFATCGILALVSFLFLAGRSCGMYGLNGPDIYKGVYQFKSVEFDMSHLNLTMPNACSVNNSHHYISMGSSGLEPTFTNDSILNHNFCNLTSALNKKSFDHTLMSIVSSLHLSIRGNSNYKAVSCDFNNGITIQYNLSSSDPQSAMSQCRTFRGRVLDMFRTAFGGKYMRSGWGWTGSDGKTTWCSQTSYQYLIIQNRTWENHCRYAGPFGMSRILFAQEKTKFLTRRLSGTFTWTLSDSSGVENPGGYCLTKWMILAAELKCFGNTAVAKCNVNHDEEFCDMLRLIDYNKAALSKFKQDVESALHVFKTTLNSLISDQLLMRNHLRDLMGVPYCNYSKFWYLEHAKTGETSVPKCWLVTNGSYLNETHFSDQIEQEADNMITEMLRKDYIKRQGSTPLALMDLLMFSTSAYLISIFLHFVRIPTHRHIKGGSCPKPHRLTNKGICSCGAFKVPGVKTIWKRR

B1: 37.2G (antibody, V domains shown)
VH: EVQLVESGGGLVKPGGSRRLSCAASGFTFSRDTMTWVRQAPGKGLEWVASISSGSSDINYADSVKGRFTISRDNGKNSLYLHMNSLRADDTAIYYCARDPRSGISGRYGMDVWGQGTTVTVSS
VL: DIVLTQSPGTLSLSPGERATLSCRASQSVNSIFLAWYQQKPGQAPRLLIYGASSRATGIPDRFSGSGSGTDFTLTISRLEPEDFAVYYCQQYHSSPKLTFGGGTKVEIKR
B2: 10.4B (antibody)
VH: DQVQLVQSGGGVVQPGRSLRVSCVTSGFNFRAYGMHWVRQIPGKGLEWVADIWSAETNRHYADSVKGRFTISRDNSKSTLYLQMNSLRAEDTGVYFCAKARPGYDYVVDLWGQGTLVIVSSASTKGPSVFPLAPCSRSTSGGTAALGCLVKDYFPEPVTVSWNSGALTSGVHTFPAVLQSSGL
VL: DEIVLTQSPSSLSASVGDRVTITCRASRDINTYLGWFQQRPGKAPKSLIYGASNLQNGVPSRFSGSGSGTYFTLTINGLQTEDFATYYCQQYSIYPLSLGGGTKADMKRTVAAPSVFIFPPSDEQLKSGTASVVCLLNNFYPREAKVQWKVDNALQSGNSQESVTEQDSKDSTYSLSSTLTLSKADYEKHKVYACEVTHQGLSSP
B3: 37.2D (antibody, V domains shown)
VH: EVQLVQSGAEVKKPGASVKVSCKASGYTFTKYGISWVRQAPGQGLEWMGWISAFNGYTRYGQRFQGKVTMTTDTSTNTASLEVRTLTSNDTAVYYCARQYPDQYSSSGWPRLFAMDVWGQGTTVIVSP
VL: ETTLTQSPATLSVSPGETATLSCRASQNVINNLAWYQQKPGQAPRLLIYGASTRATGIPARFSGSGSGTEFTLTISSMQSEDFAVYYCQQYNDWPRSFGQGTRLDIRR
B4: 37.7H (antibody, V domains shown)
VH: EVQLVQSGGGLVKAGGSLRLSCAASGFTFSTYSMNWIRQAPGKGLEWVASISSRSGSHINYVDSVKGRFTISRDNARDLLYLQMNSLRVDDSALYYCARDRRSGTSPLPLDVWGQGTTVTVFS
VL: DQSALTQPASVSGSPGQSITISCTGTGSDIGGYNFVSWYQQYPGKAPKLIIYEVRIRASGVSNRFSGSKSGNTASLTISGLQAEDEADYYCNSYSIHSPWVFGGGTKLTVLR
B5: 8.11G (antibody, V domains shown)
VH: QVQLQESGPGLVKPSETLSLTCSISGVSTRNYYWSWIRQSPGKGLEWIGYIFNIGTTNYNPSLKSRLTISVDTSKNQFSLKITSVTAADTAVYYCASGFEYGDYTFDYWGQGTPVTVSS
VL: EIVLTQSPATLSVSPGGRASLSCRASQSIGDKLSWYQQKPGQAPRLVIYGAYTRATDISPRFSGSRSGTDFNLTISRMQSGDFAVYFCQQYENWPRTFGQGTKLEIKR
B6: NE13 (antibody, V domains shown)
VH: EVQLVESGGGLVKPGGSLRLSCVASGFTFSSYSMNWVRQAPGKGLEWVSSISSGSSYIEYADSVKGRLTISRDNAKKSLYLQLNSLRAEDTAVYYCARHTARIDSYHGMDVWGQGTTVTVSS
VL: ETTLTQSPGTLSLSPGERATLSCRASQSVSSTYLAWYQQKPGQSPRLLIYGASSRATGIPDRFSGSGSGTQFTLTINRLEPEDFAVYYCQQFGSPWTFGQGTKVEIKR
B7: 25.10C (antibody, V domains shown)
VH: QVQLQESGGGLVKPGGSLRLSCTASGFNFNKYNMNWVRQAPGKGLEWVSSISALSTYIYYADSLKGRFTVSRDNAKNSLFLQMNSLRDDDTAVYYCAREIRRASTWSADLWGRGTLVTVSS
VL: DIQMTQSPSSLSASVGDRVIITCRASQSISSSLNWYQQKPGKAPKLLIYAAVNLETGVPSRFSGSGFGTDFTLAISNVQPEDFATYYCQQSDTRTFGRGTKLDVKR
B8: 19.7E (antibody, V domains shown)
VH: EVQLVESGGGLVRPGGSLRLSCAASGFSFSSYSMHWVRHVPGKGLVWVSYINSDGSTKIYADSVKGRFSISRDNAKNKLYLQMDSLRVEDTAVYSCVRLVHYDWSPFVWGQGTLVTVSS
VL: EIVLTQSPSTLSASVGDRVTITCRASQSINNWLAWYQEKPGKAPKLLINKASSLESGVPSRFSGSGSGTEFTLTITSLQPDDFATYYCQQYNSNSWTFGQGTKVDMKR

Biological target: T1, LASV Josiah (lineage IV) glycoprotein, …
Experiment: cell-based or functional assay

| Binder | IC50 (neutralization) | IC80 (neutralization) |
| --- | --- | --- |
| B1 | 0.405 µg/mL | 1.78 µg/mL |
| B2 | > 10 µg/mL | > 10 µg/mL |
| B3 | 0.137 µg/mL | 0.26 µg/mL |
| B4 | 0.134 µg/mL | 0.214 µg/mL |
| B5 | > 10 µg/mL | > 10 µg/mL |

Biological target: LASV A19 (lineage II) glycoprotein (Lassa virus, strain A19)
Experiment: cell-based or functional assay

| Binder | IC50 (neutralization) | IC80 (neutralization) |
| --- | --- | --- |
| B1 | 1.1 µg/mL | 10 µg/mL |
| B2 | > 20 µg/mL | > 20 µg/mL |
| B3 | 0.469 µg/mL | 1.15 µg/mL |
| B4 | 0.255 µg/mL | 0.537 µg/mL |
| B5 | 1.48 µg/mL | 4.59 µg/mL |

Biological target: T1, LASV Josiah (lineage IV) glycoprotein, …
Experiment: cell-based or functional assay
Remark: another data set of the same source

| Binder | IC50 (neutralization) | IC80 (neutralization) |
| --- | --- | --- |
| B1 | 5.6 µg/mL | 16 µg/mL |
| B2 | > 20 µg/mL | > 20 µg/mL |
| B3 | 0.559 µg/mL | 1.98 µg/mL |
| B4 | 0.191 µg/mL | 0.532 µg/mL |
| B5 | 0.361 µg/mL | 1.74 µg/mL |

Biological target: LASV 237 (lineage III) glycoprotein (Lassa virus, strain 237)
Experiment: cell-based or functional assay

| Binder | IC50 (neutralization) | IC80 (neutralization) |
| --- | --- | --- |
| B1 | 2.02 µg/mL | 5.23 µg/mL |
| B2 | > 20 µg/mL | > 20 µg/mL |
| B3 | 0.256 µg/mL | 0.844 µg/mL |
| B4 | 0.077 µg/mL | 0.202 µg/mL |
| B5 | 1.17 µg/mL | 3.64 µg/mL |

Biological target: LASV Pinneo (lineage I) glycoprotein (Lassa virus, strain Pinneo)
Experiment: cell-based or functional assay

| Binder | IC50 (neutralization) | IC80 (neutralization) |
| --- | --- | --- |
| B1 | > 20 µg/mL | > 20 µg/mL |
| B2 | > 20 µg/mL | > 20 µg/mL |
| B3 | 0.537 µg/mL | 1.86 µg/mL |
| B4 | 0.301 µg/mL | 1.66 µg/mL |
| B5 | 3.25 µg/mL | 10.5 µg/mL |

Biological target: T2, LCMV WE strain GP
Experiment: immunofluorescence, 293T cells transfected with GP plasmid

| Binder | binding result |
| --- | --- |
| B6 | no binding |
| B7 | no binding |
| B2 | no binding |
| B8 | no binding |
| B5 | no binding |

Biological target: T2, LCMV WE strain GP
Experiment: cross-reactivity, immunofluorescence on GP-transfected 293T cells

| Binder | binding result |
| --- | --- |
| B1 | binds |
| B3 | binds |
| B4 | binds |

Source: patent US20200002405A1 (ADMINISTRATORS OF THE TULANE EDUCATIONAL FUND, published 2020)
